Target: Cbl (UniProt P22681)
Test: anti-CD93 co-IP, anti-Cbl blot
Details: reference: wild type CD93 (res85); sites Y628,Y644

Substance: CD93 (from UniProt Q9NPY3) Y628F/Y644F (res85Y1Y2)
- binding against the reference: lost
